# According to the Immune Epitope Database (IEDB):
# pIC50, pKd: −log10 of the molar value.
# Tests used:
# [1] = target: HLA-B*83:01; experiment: IEDB peptide-MHC binding, purified MHC/competitive/fluorescence; filed as Kd, often an IC50 or EC50 that approximates it; ≥ and ≤ were set here for values at or beyond the usual limits of such assays
# [2] = target: HLA-A*32:15; experiment: as above; conditions: source organism: Mycobacterium tuberculosis variant bovis BCG str. Pasteur 1173P2
# [3] = target: HLA-B*46:01; experiment: as above; conditions: source organism: Mycobacterium tuberculosis variant bovis BCG str. Pasteur 1173P2
# [4] = target: HLA-B*45:06; experiment: as above
# [5] = target: HLA-C*14:02; experiment: as above
# [6] = target: HLA-B*15:42; experiment: as above
# [7] = target: HLA-A*69:01; experiment: IEDB peptide-MHC binding, purified MHC/direct/fluorescence; filed as Kd, often an IC50 or EC50 that approximates it; ≥ and ≤ were set here for values at or beyond the usual limits of such assays; conditions: source organism: Mycobacterium tuberculosis
# [8] = target: HLA-C*05:01; experiment: as above; conditions: source organism: Mycobacterium tuberculosis variant bovis BCG str. Pasteur 1173P2
# [9] = target: HLA-A*02:03; experiment: as above; conditions: source organism: Mycobacterium tuberculosis str. Haarlem
# [10] = target: HLA-C*08:02; experiment: as above
# [11] = target: HLA-B*08:01; experiment: IEDB peptide-MHC binding, purified MHC/competitive/fluorescence; ≥ and ≤ were set here for values at or beyond the usual limits of such assays; conditions: source organism: Homo sapiens
# [12] = target: HLA-B*18:01; experiment: as above; conditions: source organism: Homo sapiens
# [13] = target: HLA-B*35:01; experiment: as above; conditions: source organism: Homo sapiens
# [14] = target: HLA-B*37:01; experiment: as above; conditions: source organism: Homo sapiens
# [15] = target: HLA-B*53:01; experiment: as above; conditions: source organism: Homo sapiens
# [16] = target: HLA-B*58:01; experiment: as above; conditions: source organism: Homo sapiens
# [17] = target: HLA-A*01:01; experiment: as above; conditions: source organism: Homo sapiens
# [18] = target: HLA-B*44:03; experiment: as above; conditions: source organism: Homo sapiens
# [19] = target: HLA-B*07:02; experiment: as above; conditions: source organism: Homo sapiens
# [20] = target: HLA-B*40:02; experiment: as above; conditions: source organism: Homo sapiens
# [21] = target: HLA-A*03:01; experiment: as above; conditions: source organism: Homo sapiens
# [22] = target: HLA-B*14:02; experiment: as above; conditions: source organism: Homo sapiens
# [23] = target: HLA-A*11:01; experiment: as above; conditions: source organism: Homo sapiens
# [24] = target: HLA-A*31:01; experiment: as above; conditions: source organism: Homo sapiens
# [25] = target: HLA-A*02:01; experiment: as above; conditions: source organism: Homo sapiens
# [26] = target: HLA-A*68:02; experiment: as above; conditions: source organism: Homo sapiens
# [27] = target: HLA-A*24:02; experiment: as above; conditions: source organism: Homo sapiens
# [28] = target: HLA-B*51:01; experiment: as above; conditions: source organism: Homo sapiens
# [29] = target: HLA-A*25:01; experiment: as above; conditions: source organism: Homo sapiens
# [30] = target: HLA-A*29:02; experiment: as above; conditions: source organism: Homo sapiens
# [31] = target: HLA-C*14:02; experiment: IEDB peptide-MHC binding, purified MHC/direct/fluorescence; filed as Kd, often an IC50 or EC50 that approximates it; ≥ and ≤ were set here for values at or beyond the usual limits of such assays; conditions: source organism: Homo sapiens
# [32] = target: HLA-C*06:02; experiment: IEDB peptide-MHC binding, purified MHC/competitive/fluorescence; filed as Kd, often an IC50 or EC50 that approximates it; ≥ and ≤ were set here for values at or beyond the usual limits of such assays; conditions: source organism: Corynebacterium glutamicum ATCC 13032
# [33] = target: HLA-A*68:23; experiment: as above; conditions: source organism: Corynebacterium glutamicum ATCC 13032
# [34] = target: HLA-C*15:02; experiment: IEDB peptide-MHC binding, purified MHC/direct/fluorescence; filed as Kd, often an IC50 or EC50 that approximates it; ≥ and ≤ were set here for values at or beyond the usual limits of such assays; conditions: source organism: Corynebacterium glutamicum ATCC 13032
# [35] = target: HLA-C*04:01; experiment: IEDB peptide-MHC binding, purified MHC/competitive/fluorescence; filed as Kd, often an IC50 or EC50 that approximates it; ≥ and ≤ were set here for values at or beyond the usual limits of such assays; conditions: source organism: Rattus norvegicus
# [36] = target: HLA-A*01:01; experiment: as above; conditions: source organism: Rattus norvegicus
# [37] = target: HLA-A*29:02; experiment: as above; conditions: source organism: Rattus norvegicus
# [38] = target: HLA-A*80:01; experiment: as above; conditions: source organism: Rattus norvegicus
# [39] = source organism: Mycobacterium tuberculosis variant bovis BCG str. Pasteur 1173P2
# [40] = source organism: Corynebacterium glutamicum ATCC 13032
# [41] = source organism: Rattus norvegicus
sequence,measurement,setting,value
FMFDYIPPV,pKd,[1]; [39],≤ 5.30
same,pKd,[2],6.69
same,pKd,[3],8.00
same,pKd,[4]; [39],≤ 5.30
same,pKd,[5]; [39],8.24
same,pKd,[6]; [39],5.41
same,pKd,[7],8.89
same,pKd,[8],≤ 4.70
same,pKd,[9],≥ 9.00
same,pKd,[10]; [39],6.43
FPHTELANL,pIC50,[11],5.97
same,pIC50,[12],6.37
same,pIC50,[13],8.07
same,pIC50,[14],≤ 4.70
same,pIC50,[15],6.66
same,pIC50,[16],≤ 4.70
same,pIC50,[17],≤ 4.70
same,pIC50,[18],≤ 4.70
same,pIC50,[19],6.95
same,pIC50,[20],6.13
same,pIC50,[21],≤ 4.70
same,pIC50,[22],≤ 4.70
same,pIC50,[23],≤ 4.70
same,pIC50,[24],≤ 4.70
same,pIC50,[25],≤ 4.70
same,pIC50,[26],6.65
same,pIC50,[27],≤ 4.70
same,pIC50,[28],6.16
same,pIC50,[29],≤ 4.70
same,pIC50,[30],≤ 4.70
same,pKd,[31],6.10
RIFPATHYV,pKd,[1]; [40],≤ 5.30
same,pKd,[32],7.45
same,pKd,[4]; [40],≤ 5.30
same,pKd,[33],6.70
same,pKd,[6]; [40],≤ 5.30
same,pKd,[7],7.73
same,pKd,[34],7.77
same,pKd,[10]; [40],≤ 4.70
YYRYPTGESY,pKd,[1]; [41],≤ 5.30
same,pKd,[35],≤ 5.30
same,pKd,[36],≤ 4.70
same,pKd,[4]; [41],≤ 5.30
same,pKd,[5]; [41],≥ 10.00
same,pKd,[37],≥ 10.00
same,pKd,[38],5.84
same,pKd,[6]; [41],≤ 5.30
